Assay results as given in patent publication US9732101B2, “Bioreversible boronates for delivery of molecules into cells” (WISCONSIN ALUMNI RESEARCH FOUNDATION, priority 2012, dated 2017).
Like-named read-outs stand apart in the source and are kept apart here.

Columns and labels:
[1] = Heparin-affinity assay (retention on immobilized heparin column); type: binding; conditions: for retention on column of heparin in presence of fructose: 0.10 M fructose in elution buffer
Description: To assess the affinity of boronated proteins for oligosaccharides the retention of boronated proteins compared to unmodified protein can be measured on a heparin column.
For example, the affinity of unmodified and benzoboroxole-boronated RNase A for heparin was assessed by retention on a 1.0-mL HiTrap Heparin HP column (GE Healthcare, Piscataway, N.J.). Unmodified and benzoboroxole-boronated RNase A were mixed in a 1:1 ratio (2.0 mg each) in DPBS, and the resulting solution was loaded onto the column. The column was washed with 5 mL of PBS, followed by elution with 45 mL of a linear gradient of NaCl (0.0-1.0 M) in PBS. Elution was monitored by absorbance at 280 nm, and eluted proteins were identified by mass spectrometry. FIG. 2 illustrates an elution profile of a mixture of unmodified RNase A and benzoboroxole-boronated RNase A from a column of immobilized heparin (solid lines). A small amount of unmodified RNase A was apparent in peak B (FIG. 2). It is currently believed that benzoboroxole-boronated RNase A was able to complex to a small amount of unmodified RNase A and extend its elution time. The same assay was then repeated with 100 mM fructose in both buffers (FIG. 2, dashed line). To make fructose-supplemented buffers, fructose (18 g, 100 mmol) was added to 100 mL of a 10× stock solution of PBS, either no additional NaCl or NaCl (58.4 g, 1.00 mol) was added, and both buffers were diluted to a final volume of 1 L and adjusted to pH 7.4.

6-FAM-dArUdAdA-6-TAMRA = experiment: Ribonucleolytic activity assay; type: biochemical; conditions: relative to unmodified RNase A; 0.10 M MES-NaOH buffer, pH 6.0, NaCl 0.10 M
Description: Assays were carried out at ambient temperature in 2 mL of 0.10 M MES-NaOH buffer, pH 6.0, containing NaCl (0.10 M). Fluorescence data were fitted to the equation: kcat/KM=(ΔI/Δt)/(If−I0)[E], in which ΔI/Δt is the initial reaction velocity, I0 is the fluorescence intensity before addition of ribonuclease, If is the fluorescence intensity after complete substrate hydrolysis, and [E] is the total ribonuclease concentration. The assay was performed in triplicate.

K-562 cells = experiment: Cell-proliferation assay, [methyl-3H]thymidine incorporation; type: cell-based, human
Description: The effect of unmodified and boronated RNase A on the proliferation of K-562 cells was assayed as described in For assays, 5 μL of a solution of the ribonuclease or PBS (control) was added to 95 μL of cells (5.0×10^4 cells/mL). For co-treatment assays with fructose, ribonucleases were first serially diluted at 2× concentration, followed by addition of an equal volume of 2 M fructose in PBS to each ribonuclease dilution, resulting in a 1× ribonuclease dilution as before but now containing 1 M fructose. Then, 5 μL of each dilution was added to cells as above, including a control of PBS containing 1 M fructose. Because 5 μL of samples were added to 95 μL of cells, the final concentration of fructose in each well was 50 mM.
After a 44-h incubation, K-562 cells were treated with [methyl-^3H]thymidine for 4 h, and the incorporation of radioactive thymidine into cellular DNA was quantitated by liquid scintillation counting. The results are shown as the percentage of [methyl-^3H]thymidine incorporated relative to control cells treated with PBS in FIG. 5. […] Values for IC50 were calculated by fitting the curves by nonlinear regression to the equation: y=100%/(1+10^(log(IC^50^)-log [ribonuclease])h), in which y is the total DNA synthesis following the [methyl-^3H]thymidine pulse and h is the slope of the curve.

IC50 (K-562 cells; [methyl-3H]thymidine incorporation, 44-h incubation, read-out: IC50, inhibition of K-562 cell proliferation): 4 ± 0.3 µM
IC50 (K-562 cells; fructose 50 mM, read-out: IC50, inhibition of K-562 cell proliferation in the presence of fructose): 9 ± 1 µM
B1: benzoboroxole-boronated RNase A: RNase A with 5-amino-2-hydroxymethylphenylboronic acid conjugated to protein carboxyl groups by carbodiimide condensation (conjugate, UniProt P61823 27-150, looked up)
Ribonuclease pancreatic: KETAAAKFERQHMDSSTSAASSSNYCNQMMKSRNLTKDRCKPVNTFVHESLADVQAVCSQKNVACKNGQTNCYQSYSTMSITDCRETGSSKYPNCAYKTTQANKHIIVACEGNPYVPVHFDASV
modifications: benzoboroxole conjugated to carboxyl groups
notes: RNase A with 5-amino-2-hydroxymethylphenylboronic acid conjugated to protein carboxyl groups by carbodiimide condensation
retention on column of heparin in presence of fructose [1]: diminishing retention
retention on column of heparin in presence of fructose ([1]; listed as boronated RNAse A): diminished the retention
retention on column of heparin ([1]; versus unmodified RNase A, NaCl gradient in PBS): retained longer
ribonucleolytic activity retained (6-FAM-dArUdAdA-6-TAMRA): 17±2%
